Laboratory results taken from PMC9800568, “The permanently chaperone-active small heat shock protein Hsp17 from Caenorhabditis elegans exhibits topological separation of its N-terminal regions” (The Journal of Biological Chemistry, 2022).

Assays:
[1] = biological target: Hsp17 (small heat shock protein Hsp17 from Caenorhabditis elegans) (C. elegans) (UniProt Q20660); experiment: cryo-EM structure; 2.5 mg/ml Hsp17, Titan Krios 300 kV, tetrahedral symmetry, pseudo-atomic model fitted
[2] = biological target: Hsp17 (small heat shock protein Hsp17 from Caenorhabditis elegans) (C. elegans) (UniProt Q20660); experiment: SEC; SEC-HPLC, Superdex 200 Increase 10/300 GL, PBS, 0.5 ml/min, room temperature, 50 μl of 50 μM protein
[3] = biological target: the molecule itself; experiment: as above

**Q.** For “Hsp17 (small heat shock protein Hsp17 from Caenorhabditis elegans) (from UniProt Q20660 1-149) (natural protein)”, which stoichiometry N [1] is on record?
**A.** Its stoichiometry N is 24.

**Q.** And the stoichiometry N [2]?
**A.** The stoichiometry N was 24.

B1: Hsp17ΔNTR (Hsp17 variant lacking the N-terminal region) (domain or fragment, C. elegans)
chain: MGDAIDVVNNDQEYNVSVDVSQFEPEELKVNIVDNQLIIEGKHNEKTDKYGQVERHFVRKYNLPTGVRPEQIKSELSNNGVLTVKYEKNQEQQPKSIPITIVPKRN
notes: Hsp17, C. elegans, from aa position 45 to the C-terminus (ACD and CTR); The full-length protein is modelled to residue 148; also called NTR-truncated variant; truncation variant; source: E. coli BL21 (DE3), tag-free, purified (Sepharose Q FF, Superdex 75 pg)
**Q.** B1 was tested. Which “stoichiometry N” value [3] did it give?
**A.** The value was 3.5 monomers.
